This data set can be described thus: label from the status in PepcDB records.
Take “MSLGGNGREKDHASELRSIFSLKKIADAVNGYEEAKYVVFGIPFDNTSSYRRGSKYAPDSIRGAYVNLESYEYSYGIDLLASGMADLGDMEESEDVEYVIDTVESVVSAVMSDGKIPIMLGGEHSITVGAVRALPKDVDLVIVDAHSDFRSSYMGNKYNHACVTRRALDLLGEGRITSIGIRSVSREEFEDPDFRKVSFISSFDVKKNGIDKYIEEVDRKSRRVYISVDMDGIDPAYAPAVGTPEPFGLADTDVRRLIERLSYKAVGFDIVEFSPLYDNGNTSMLAAKLLQVFIASREKYYKEHIEGHHHHHH”: the protein production result was “not failed”. The same measure for “MSLGNIFVTGRIAFSLKYEQQTQSLVVHVKECHQLAYADEAKKRSNPYVKTYLLPDKSRQGKRKTSIKRDTVNPLYDETLRYEIPESLLAQRTLQFSVWHHGRFGRNTFLGEAEIQMDSWKLDKKLDHCLPLHGKISAESEGHHHHHH”: “not failed”. The same measure for “MSLGNNSAKGTATGNATALWRNAQLATLNPAMDGIGAVENAVIAVRNGRIAFAGPESDLPDDLSTADETTDCGGRWITPALIDCHTHLVFGGNRAMEFEMRLNGATYEEIAKAGGGIVSSVRDTRALSDEVLVAQALPRLDTLLSEGVSTIEIKSGYGLDIETELKMLRVARRLETLRPVRIVTSYLAAHATPADYKGRNADYITDVVLPGLEKAHAEGLADAVDGFCEGIAFSVKEIDRVFAAAQQRGLPVKLHAEQLSNLGGAELAASYNALSADHLEYLDETGAKALAKAGTVAVLLPGAFYALREKQLPPVQALRDAGAEIALATDCNPGTSPLTSLLLTMNMGATLFRMTVEECLTATTRNAAKALGLLAETGTLEAGKSADFAIWDIERPAELVYRIGFNPLHARIFKGQKVSPEGHHHHHH”: “not failed”; for “MSLGQQQVTLFWSGAITGPTSDAGAPYGAAVEDYCKWANERKLVPGVVFNCVVRDDQYNNANTQRFFEEAVDRFKIPVFLSYATGANLQLKPLIQELRIPTIPASMHIELIDPPNNDYIFLPTTSYSEQVVALLEYIAREKKGAKVALVVHPSPFGRAPVEDARKAARELGLQIVDVQEVGSGNLDNTALLKRFEQAGVEYVVHQNVAGPVANILKDAKRLGLKMRHLGAHYTGGPDLIALAGDAAEGFLWATSFYMAHEDTPGIRLQKEIGRKYGRPENFIESVNYTNGMLAAAIAVEAIRRAQERFKRITNETVYQAIVGMNGPNAFKPGFAVSTKQGVEIDFTKSEHTGAEGLRILEAKGGRFVPVTEPFTSALFRKVHYGEGHHHHHH”: “not failed”; for “MSLGRTDAIALAYPSRPRVLNNSTFLEMISWIGIELGKRGLDLLLIPDEPGEKYQSLIHLVETRRVDALIVAHTQPEDFRLQYLQKQNFPFLALGRSHLPKPYAWFDFDNHAGASLAVKRLLELGHQRIAFVSTDARISYVDQRLQGYVQTMSEAGLMPLAGYLQKADPTRPGGYLAASRLLALEVPPTAIITDCNMLGDGVASALDKAGLLGGEGISLIAYDGLPDDSLLDIAVTPIVQNTRTSVGKQIASMICDLLGGKDPKELQVLWQPEIGEGETDGVNRRGEGHHHHHH”: “not failed”.

For “MSLHDQRVHAERDPLDPQAHGLTITRIETIPMVAPLAREFRGSHYHMTHRATIVTRVHTDAGIIGEAYTGDEHETMFDIDRIIHEELAPTLIGQDAMAIERLWDSGYKVTFDILRDRRLGLVALAAVNTAIWDAVGKALKMPLWKLWGGYRNELPMIAIGGYYGEPLGSIADEMHNYQELGLAGVKFKVGGLSAAEDAARITAAREAAGDDFIICIDANQGYKPAVAVDLSRRIADLNIRWFEEPVEWHNDKRSMRDVRYQGSVPVCAGQTEFSASGCRDLMETGAIDVCNFDSSWSGGPTAWLRTAAIATSYDVQMGHHEEPQVSTHLLASQPHGTIAECFHPDRDPFWWNMITNRPKLNNGTLTLSDRPGLGWDLNWDYIDQYRVSKDEGHHHHHH”, the protein production result is recorded as “not failed”.

For “MSLHETFNRSAFSQFINGGQGRVLRLAAGLGFLAVGLVYRDRALGLAAMAWSVLPLTAGGFDVCYISAALGGPLSGEKIRRLRR”, the protein production entry is listed as “failed”. Next, “MSLHPHLNANLEGGVLTLAINRPEAKNALYGELYLWIAKALDEADQNKDVRVVVLRGAEHDFTAGNDMKDFMGFVQNPNAGPAGQVPPFVLLKSAARLSKPLIIAVKGVAIGIGVTILLQADLVFADNTALFQIPFVSLGLSPEGGASQLLVKQAGYHKAAELLFTAKKFNAETALQAGLVNEIVEDAYATAQATAQHLTALPLASLKQTKALMKHDLDQIIECIDHEAEIFMQRVQSPEMLEAVQAFMQKRQPDFSQEGHHHHHH”: “not failed”.

“MSLIPLRQNIASMKGYIPGYQPPDIASWIKLNTNENPYPPSPEVVKAILEELGPDGAALRIYPSASSQKLREVAGELYGFDPSWIIMANGSDEVLNNLIRAFAAEGEEIGYVHPSYSYYGTLAEVQGARVRTFGLTGDFRIAGFPERYEGKVFFLTTPNAPLGPSFPLEYIDELARRCAGMLVLDETYAEFAESNALELVRRHENVVVTRTLSKSYSLAGMRIGLAIARPEVIAALDKIRDHYNLDRLAQAACVAALRDQAYLSECCRRIRETREWFTTELRSIGYDVIPSQGNYLFATPPDRDGKRVYDGLYARKVLVRHFSDPLLAHGMRISIGTREEMEQTLAALKEIGEGHHHHHH”: the protein production result is given as “not failed”. The same measure for “MSLISIFIPEILLVIMGFIVLAVGMFIQSGKASAAISFITLIAALLSVFFIPYDSSYGITVNKFSVYFSAVLIISALFISLPMYRYVKKRPEVFYASLIFSVIGMVIVAMTWNLVIAFVAFESVSIMTYIMSAYGGKQRNLEATIKYFFTGTIATTFIILGIGFYFFSVHTFSLSPVLNGSSISYYSGTKPEFLLALLFLLIGFGFKLAIFPMHQWAIDAYDGTENGVSAYLSTGTKIMAFVLVLKIFLVGFQSFPTPVYYMFTIIAIITMTYANVAALSQMNVKRLLAYSSVAQAGYMILVISVVSYVGLGSARSVSLAIAAGMFYALVYVFMKGGSFIAMNMVKEDNITFENISGLGKKSPYVAASFSILLLSLAGIPLTGGFLAKYFLFLSVIDSGLWWLAIIAIINSAISVFYYMKVMRYLFWEEPKGEFSTDMGNKAAVIVSAAIVVFLGVFYVLFPVLVGISSQIVG”: “failed”. The same measure for “MSLIVVTGGAGFIGSHVVDKLSESNEIVVIDNLSSGNEEFVNEAARLVKADLAADDIKDYLKGAEEVWHIAANPDVRIGAENPDEIYRNNVLATYRLLEAMRKAGVSRIVFTSTSTVYGEAKVIPTPEDYPTHPISLYGASKLACEALIESYCHTFDMQAWIYRFANVIGRRSTHGVIYDFIMKLKRNPEELEILGNGEQNKSYIYISDCVDAMLFGLRGDERVNIFNIGSEDQIKVKRIAEIVCEELGLSPRFRFTGGDRGWKGDVPVMLLSIEKLKRLGWKPRYNSEEAVRMAVRDLVEDLDEEGHHHHHH”: “not failed”; for “MSLIYQIAKEFDFCYGHRVWSQELNPDFSLDPCLSCRHLHGHQGKVIVHLESRELQRGMVTDFAHLNWFKRFIDEVLDHRFIIDIDDPLFPTLLPHFADKSALVWMEEGYARVDFERIKGESSPILELYESFVVVRFVPTSESIASWLLELLRSRIQPLGVKVSSVEFLETPKSRARVYNEGHHHHHH”: “not failed”; for “MSLKDKKILIVEDSKFQAKTIANILNKYGYTVEIALTGEAAVEKVSGGWYPDLILMDIELGEGMDGVQTALAIQQISELPVVFLTAHTEPAVVEKIRSVTAYGYVMKSATEQVLITIVEMALRLYEANVHANEGHHHHHH”: “not failed”. The same measure for “MSLKFENTGLENQTVELSRLDDIMERLGFVRAAQWDYERVTYDRKYVVKEGTYYLRVQGYAIEGNVDSRYALIKLLTPIMGKHYYPHGVEYGDDEHFPSSLVSQCQNVLAQVKSELEKIKEEGHHHHHH”: “not failed”; for “MSLKFQKLSGLVLCFLIALPAWFLGQSFPLVGAPVFAIFLGMLLAIFYKNREHTEAGIAFTSKYILQFAVVLLGFGLNLSQVLTVGKTSLPIIVATISSSLLLAFLLQKWFKLDVNTATLVGVGSSICGGSAIAATAPVIQADGDEIAQSISVIFLFNILAALIFPTLGDMIGLSNHGFALFAGTAVNDTSSVTATAAAWDGLHHSNTLDGATIVKLTRTLAIIPITLGLSFYQVYKTKKVGKNQQHTVKLKKVFPMFILYFILASIITTILTALGVNPIFFTPLKTLSKFCIVMAMGAIGLNTNIVKLVKTGGQAIVLGASCWIVITLVSLGMQHLLGIW”: “failed”; for “MSLKKALFLILDQYADWEGVYLASALNQREDWSVHTVSLDPIVSSIGGFKTSVDYIIGLEPANFNLLVMIGGDSWSNDNKKLLHFVKTAFQKNIPIAAICGAVDFLAKNGLLNNHSHTGNFVYLWKDYKQYKPISSFVEKQAVRDKNLVTANGTAPIEFTNLILEMIDFDTPENIEKMMYMNRYGFYHFCDKYGNPFVEGHHHHHH”: “not failed”. Take “MSLKKKIAVVTGATGGMGIEIVKDLSRDHIVYALGRNPEHLAALAEIEGVEPIESDIVKEVLEEGGVDKLKNLDHVDTLVHAAAVARDTTIEAGSVAEWHAHLDLNVIVPAELSRQLLPALRAASGCVIYINSGAGNGPHPGNTIYAASKHALRGLADAFRKEEANNGIRVSTVSPGPTNTPMLQGLMDSQGTNFRPEIYIEPKEIANAIRFVIDAGETTQITNVDVRPRIELADRKEGHHHHHH”: the protein production entry is “not failed”. As for “MSLKLIGMLDSPYVRRVAISLKSLGLPFEHHSLSVFSTFEQFKAINPVVKAPTLVCEGGEVLMDSSLIIDYLETLAGPQRSLMPTALPQRLRELRLVGLALAACEKSVQIVYERNLRPAEKQHGPWLERVGGQLQAAYGELEQELQKQPLPRDGSLGQAGISLAVAWSFSQMMVADQFNPGQFPAVRGFAEYAEQLPVFLATPATEGHHHHHH”, the protein production entry is on record as “not failed”.

Take “MSLKTGRSNIIAFIVPDQNPFFTEVLTEISHECQKHHLHVAVASSEENEDKQQDLIETFVSQNVSAIILVPVKSKFQMKREWLKIPIMTLDRELESTSLPSITVDNEEAAYIATKRVLESTCKEVGLLLANPNISTTIGRKNGYNKAISEFDLNVNPSLIHYSDQQLGTNAQIYSGYEATKTLLSKGIKGIVATNHLLLLGALQAIKESEKEIKKDVIIVGFDDSYWNEIYTPKLTVISQPVKEMGQVAAKMIYKLIKGKDVTSIKLSTKLIIRESCSFNEGHHHHHH”: the protein production entry is “not failed”. The same measure for “MSLKYFKRLSDRERAIFEAGITLGAIYHQFCGTPVSPGTAEEVAKCIERAALLQPCVIDARVEVDVSSEDTDNYGGYTEVSGRNLRVTIVTRCGEWEAVGKLEFIEELNYPLMWVEEIRRVEQEGHHHHHH”: “not failed”; for “MSLLEKDINLKIFKGNLIFTKTSDKFTIMKDSYIVVIDGKIASVSSNLPDKYKGNPIIDFRNNIIIPGMNDLHAHASQYKNLGIGMDKELLPWLNNYTFPEEAKFLNVDYAKKTYGRLIKDLIKNGTTRVALFATLHKDSTIELFNMLIKSGIGAYVGKVNMDYNCPDYLTENYITSLNDTEEIILKYKDKSNIVKPIITPRFVPSCSNELMDGLGKLSYKYRLPVQSHLSENLDEIAVVKSLHKKSNFYGEVYDKFGLFGNTPTLMAHCIHSSKEEINLIKRNNVTIVHCPTSNFNLGSGMMPVRKYLNLGINVVLGSDISAGHTCSLFKVIAYAIQNSKIKWQESGKKDMFLSTSEAFYMATKKGGSFFGKVGSFEEGYDFDALVINDSNLYPEDYDLTERLERFIYLGDDRNIMKRYVCGNEIFGPKFEGHHHHHH”: “not failed”.
